Source: IntAct's records for PubMed 17928861

B1: DOA4-independent degradation protein 4 (Saccharomyces cerevisiae), P36108 (parent)
chain: MSLFEWVFGKNVTPQERLKKNQRALERTQRELEREKRKLELQDKKLVSEIKKSAKNGQVAAAKVQAKDLVRTRNYIQKFDNMKAQLQAISLRIQAVRSSDQMTRSMSEATGLLAGMNRTMNLPQLQRISMEFEKQSDLMGQRQEFMDEAIDNVMGDEVDEDEEADEIVNKVLDEIGVDLNSQLQSTPQNLVSNAPIAETAMGIPEPIGAGSEFHGNPDDDLQARLNTLKKQT
partner: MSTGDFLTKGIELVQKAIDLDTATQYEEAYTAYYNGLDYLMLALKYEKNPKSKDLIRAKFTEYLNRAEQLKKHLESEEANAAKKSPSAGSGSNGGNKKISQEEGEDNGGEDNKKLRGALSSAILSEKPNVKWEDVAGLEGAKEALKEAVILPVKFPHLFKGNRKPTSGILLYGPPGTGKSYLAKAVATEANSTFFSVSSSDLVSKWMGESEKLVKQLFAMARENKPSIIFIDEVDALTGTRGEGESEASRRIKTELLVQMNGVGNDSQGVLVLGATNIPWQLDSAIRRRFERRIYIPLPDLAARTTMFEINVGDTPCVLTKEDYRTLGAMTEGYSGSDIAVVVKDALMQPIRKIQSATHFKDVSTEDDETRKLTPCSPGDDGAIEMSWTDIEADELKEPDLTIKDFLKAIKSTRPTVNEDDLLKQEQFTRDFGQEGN

Variants of: B1
Settings: with vps4_yeast VPS4, P52917

Variant	effect of a mutation on the interaction
MSLFEWVFGKNVTPQERLKKNQRALERTQRELEREKRKLELQDKKLVSEIKKSAKNGQVAAAKVQAKDLVRTRNYIQKFDNMKAQLQAISLRIQAVRSSDQMTRSMSEATGLLAGMNRTMNLPQLQRISMEFEKQSDLMGQRQEFMDEAIDNVMGDEVDEDEEADEIVNKVLDEIGVDLNSQLQSTPQNLVSNAPIAETAMGIPEPIGAGSEFHGNPDDDLQADLNTLKKQT [R224D]	disrupting interaction strength
MSLFEWVFGKNVTPQERLKKNQRALERTQRELEREKRKLELQDKKLVSEIKKSAKNGQVAAAKVQAKDLVRTRNYIQKFDNMKAQLQAISLRIQAVRSSDQMTRSMSEATGLLAGMNRTMNLPQLQRISMEFEKQSDLMGQRQEFMDEAIDNVMGDEVDEDEEADEIVNKVLDEIGVDLNSQLQSTPQNLVSNAPIAETAMGIPEPIGAGSEFHGNPDDDDQARLNTLKKQT [L221D]	disrupting interaction strength

Further lines, results first:

effect of a mutation on the interaction	Variant
disrupting interaction strength	MSLFEWVFGKNVTPQERLKKNQRALERTQRELEREKRKLELQDKKLVSEIKKSAKNGQVAAAKVQAKDLVRTRNYIQKFDNMKAQLQAISLRIQAVRSSDQMTRSMSEATGLLAGMNRTMNLPQLQRISMEFEKQSDLMGQRQEFMDEAIDNVMGDEVDEDEEADEIVNKVLDEIGVDLNSQLQSTPQNLVSNAPIAETAMGIPEPIGAGSEFHGNPDDDLQARDNTLKKQT [L225D]
disrupting interaction strength	MSLFEWVFGKNVTPQERLKKNQRALERTQRELEREKRKLELQDKKLVSEIKKSAKNGQVAAAKVQAKDLVRTRNYIQKFDNMKAQLQAISLRIQAVRSSDQMTRSMSEATGLLAGMNRTMNLPQLQRISMEFEKQSDLMGQRQEFMDEAIDNVMGDEVDEDEEADEIVNKVLDEIGVDLNSQLQSTPQNLVSNAPIAETAMGIPEPIGAGSEFHGNPDDDLQARLNTDKKQT [L228D]
disrupting interaction strength	MSLFEWVFGKNVTPQERLKKNQRALERTQRELEREKRKLELQDKKLVSEIKKSAKNGQVAAAKVQAKDLVRTRNYIQKFDNMKAQLQAISLRIQAVRSSDQMTRSMSEATGLLAGMNRTMNLPQLQRISMEFEKQSDLMGQRQEFMDEAIDNVMGDEVDEDEEADEIVNKVLDEIGVDLNSQLQSTPQNLVSNAPIAETAMGIPEPIGAGSEFHGNPDDDLQARLNTLDKQT [K229D]
